In article PMC12658125, “Oligomerisation of Ku from Mycobacterium tuberculosis promotes DNA synapsis” (Nature Communications, 2025):

Columns and labels:
[1] = molecular target: the molecule itself; assay: cryo-EM structure; apo Ku-Mtb without DNA; 20 mM Tris-HCl pH 8, 75 mM NaCl, 5 mM MgCl2, 2 mM DTT, 8 mM CHAPSO; C2 symmetry imposed; step: protomers to homodimer
[2] = molecular target: the molecule itself; assay: cryo-EM micrographs and 2D class averages
Ku-Mtb L13A/V14A = molecular target: T1, Ku-Mtb L13A/V14A (Mycobacterium tuberculosis, UniProt P9WKD9 1-273, L13A;V14A); assay: cryo-EM; conditions: protein: recombinant; tags: His (Ni-NTA purified); chain copies: 2; label: 5' FAM on strand 1; 3' overhang 20 nt on strand 1
T1 sequence: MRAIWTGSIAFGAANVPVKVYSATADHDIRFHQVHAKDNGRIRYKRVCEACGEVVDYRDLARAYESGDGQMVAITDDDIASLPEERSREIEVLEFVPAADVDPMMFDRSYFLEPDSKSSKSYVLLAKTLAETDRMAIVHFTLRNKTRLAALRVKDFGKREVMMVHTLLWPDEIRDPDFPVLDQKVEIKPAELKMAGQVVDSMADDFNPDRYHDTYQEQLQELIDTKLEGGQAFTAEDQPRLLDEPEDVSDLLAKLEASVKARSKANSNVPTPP

B1: Ku protein from Mycobacterium tuberculosis, wild type (natural protein)
chain: MRAIWTGSIAFGLVNVPVKVYSATADHDIRFHQVHAKDNGRIRYKRVCEACGEVVDYRDLARAYESGDGQMVAITDDDIASLPEERSREIEVLEFVPAADVDPMMFDRSYFLEPDSKSSKSYVLLAKTLAETDRMAIVHFTLRNKTRLAALRVKDFGKREVMMVHTLLWPDEIRDPDFPVLDQKVEIKPAELKMAGQVVDSMADDFNPDRYHDTYQEQLQELIDTKLEGGQAFTAEDQPRLLDEPEDVSDLLAKLEASVKARSKANSNVPTPP
notes: also called Ku-Mtb; KuMtb
With B1 the “stoichiometry N” value [1] was 2.

B2: Ku-Mtb S201A/Q197A double mutant (natural protein)
chain: MRAIWTGSIAFGLVNVPVKVYSATADHDIRFHQVHAKDNGRIRYKRVCEACGEVVDYRDLARAYESGDGQMVAITDDDIASLPEERSREIEVLEFVPAADVDPMMFDRSYFLEPDSKSSKSYVLLAKTLAETDRMAIVHFTLRNKTRLAALRVKDFGKREVMMVHTLLWPDEIRDPDFPVLDQKVEIKPAELKMAGAVVDAMADDFNPDRYHDTYQEQLQELIDTKLEGGQAFTAEDQPRLLDEPEDVSDLLAKLEASVKARSKANSNVPTPP
notes: source: over-expressed, purified
B2: binds [2].

B3: FAM-DNA, 32 bp with 3' 20dT overhang (mixed)
DNA 1: GGAATGTAACCATCGTTGGTCGGCAGCAGGGCTTTTTTTTTTTTTTTTTTTT
DNA 2: GCCCTGCTGCCGACCAACGATGGTTACATTCC
B3: binds (Ku-Mtb L13A/V14A).
